According to patent US6340783:

Legend:
[1] = target: beta-amyloid protein (BAP) residues 1-28, synthetic peptide (Homo sapiens (Human)) (UniProt P05067); test: BAP (1-28) affinity column after heparitinase/heparinase digestion
[2] = target: β/A4 (1-28) with three amino acid substitutions of the putative heparin binding domain (histidine, histidine and lysine changed to glycine) (UniProt P05067); test: affinity column chromatography of 125I-HSPG, mutated versus normal β/A4 (1-28) column
[3] = target: beta-amyloid protein (BAP) residues 1-28, synthetic peptide (Homo sapiens (Human)) (UniProt P05067); test: BAP (1-28) affinity column, no unlabeled competing ligand
[4] = target: beta-amyloid protein (BAP) residues 1-28, synthetic peptide (Homo sapiens (Human)) (UniProt P05067); test: competition with 125I-HSPG for binding to the BAP (1-28) affinity column

beta-amyloid protein (BAP) residues 1-28, synthetic peptide (Homo sapiens (Human)), sequence (P05067 672-699 limits assumed): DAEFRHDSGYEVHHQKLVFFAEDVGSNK

Question: For “heparitinase/heparinase-digested 125I-labeled HSPG, A0AAA9TDR0 23-4401”, which percent still able to bind in comparison to undigested controls [1] is on record?
Answer: 61%

Question: With “high Mr heparan sulfate proteoglycan (HSPG) isolated from the culture media of bovine aortic endothelial cells (from UniProt A0AAA9TDR0 23-4401)” as the substance, how does the percent decrease in binding against normal β/A4 (1-28) [2] read?
Answer: 50 to 60%

Question: Which percent bound [3] does the source give for “high Mr heparan sulfate proteoglycan (HSPG) isolated from the culture media of bovine aortic endothelial cells, A0AAA9TDR0 23-4401” here?
Answer: 21.6%

Question: Which IC50 [4] does the source give for “low density heparan sulfate proteoglycan isolated from the mouse Engelbreth-Holm-Swarm (EHS) sarcoma (perlecan), Q05793 22-3707” here?
Answer: < 1000 nM
